This note sets out measurements from the DeepSol protein solubility set.

A short description of the data set: soluble on expression in E. coli; label from the status in PepcDB or PDB records.
With “KTTTTIYDKNKEYAGKLSGQKGTYVELNAISDHLKNAVIATEDRTFYENNGVNFKRFFLAVATLGKFGGGSTITQQLAKNAYLSQDQTIKRKAREFFLALELTKKYSKAEILTMYLNNSYFGNGVWGVEDASRKYFGTSAANLTVDEAATLAGMLKGPEVY”, the “soluble on expression in E. coli” value is given as “not soluble”.
Under “MGSDKIHHHHHHLKAAIVTHLDQAPIYGDFPAPKPAPKQVLITVLASSVNQRVRSQADGSHYTKTPELPFIPGLDGVGRTSDGQLVYFLTRDPKFGALAEQTVTQQQLMFPLPEDADPAQIAASVNPAMAGWMALRVKAGQVVGKRVLVLGATGAAGTAAVQIAKTMGAAHVAGVGRNPDKLAALSDLGADTTVQLGDTAALAALPPADIVLDFLWGAPSATVMMTLLKARRDHAAKLIWIEIGGAAGPTLSLPAAALRSTGLTLVGSGQGSLTLADYQRELPALFTALTAGKFVTPTTVLSLSQVHDHWQDRGAARLVFQP” stands “not soluble”; under “TTLSCKVTSVEAITDTVYRVRIVPDAAFSFRAGQYLMVVMDERDKRPFSMASTPDEKGFIELHIGASEINLYAKAVMDRILKDHQIVVDIPHGEAWLRDDEERPMILIAGGTGFSYARSILLTALARNPNRDITIYWGGREEQHLYDLCELEALSLKHPGLQVVPVVEQPEAGWRGRTGTVLTAVLQDHGTLAEHDIYIAGRFEMAKIARDLFCSERNAREDRLFGDAFAFI”, “soluble”.
Turning to “GRPYKLLNGIKLGVYIPQEWHDRLMEIAKEKNLTLSDVCRLAIKEYLDNHDKQKK”, the “soluble on expression in E. coli” value is reported as “soluble”.
Under “MKLIWSEESWDDYLYWQETDKRIVKKINEIIKDTRRTPFEGKGKPEPLKHNLSGFWSRRITEEHRLVYAVTDDSLLIAACRYHYLEHHHHHH” stands “soluble”; under “MKFTSATGSGQQGSSSGTTNSAGNPDSLKQDKVDKSGDSVTVAETTSGDNLTNYTNLPPNLTPTADPNALSFTNKNNAQRAQLFLRALLGSIPVLVNKSGQDDLEHHHHHH”, “not soluble”; under “MGSDKIHHHHHHMILNIDVNLAYSIEQPVDLILQIQAPSFADQHVVSETFDLGNPEHVGRIAGEAGMGDRVLLSTATDFRFSYTAQIDVNRPALALEQLKAVAPHLLPGDAVRYLMPSRYCQSDELQSFVAAEFGHLSGGARIVAMRDWINQRYQYVPGSSTAQTTAIDTFVQRQGVCRDFAHVLIALARASAIPARFVSVYAPHVTPQDFHAVAEVFLDGTWHLVDATGMADASDIARIGVGMDAAEVAFLSSFGPMTMDTQTVSVSIAGS”, “not soluble”.
For “MRPYKRVLIKLSGGALADQTGNSFNSKRLEHIANEILSIVDLGIEVSIVIGGGNIFRGHLAEEWGIDRVEADNIGTLGTIINSLMLRGVLTSKTNKEVRVMTSIPFNAVAEPYIRLRAVHHLDNGYIVIFGGGNGQPFVTTDYPSVQRAIEMNSDAILVAKQGVDGVFTSDPKHNKSAKMYRKLNYNDIVRQNIQVMDQAALLLARDYNLPAHVFNFDEPGVMRRICLGEHVGTLINDDVSMLVREKLEHHHHHH”, the “soluble on expression in E. coli” value was “not soluble”.
Under “MGHHHHHHSHMTLKSSGRISDVFLCRHEKIFHPNKGYIYVVKVMRENTHEATYIQRTFEEFQELHNKLRLLFPSSHLPSFPSRFVIGRSRGEAVAERRREELNGYIWHLIHAPPEVAECDLVYTFFHPLPRDEKAMGTSPAPKSSDGTWARPVGKVGGEVKLSISYKNNKLFIMVMHIRGLQLLQDGNDPDPYVKIYLLPDPQKTTKRKTKVARKTCNPTYNEMLVYDGIPKGDLQQRELQLSVLSEQGFWENVLLGEVNIRLRELDLAQEKTGWFALGSRSHGTL” stands “not soluble”.
Under “MAHHHHHHMLLAIVRDLLQLFRPYAAALHPETTQVWFSVRDTPLSWLYPAGAVKDYVNECVREERAAHLSASSPSSPPLSSAAALLQSHLCTILSEPLELSFHIHSLTKGSSLARTVPLYINYDRLEEHIRMEVKQAHKAAYTVLYGNYAIYQREAESALQAAVGLALYRPFDAAAQEQLQQQRYRDPGSSGSGGAGVGNGGYSSSNSPGGGYSAPFAFTSPYLLVEYQQLLRGLLTPRPHVAYLIRIGFPFAYRGAAGRSESGYLQYDAHRVSAAPALALSVTTTEAAAAPTMEPEQLPLGLLLWRLFRAPVLRWKAQQLQQHPTDNTSPSTAAHASATVLSEVERTYQQLLRTLAPYYADPPRCATDGLEQQEPLMTSTPPEPPAWAAWERAMVQAFMRDYEERPEKCGLGFEFAEAAATSAASPNAVRRVRFMVQGIQPPLTTPGSFLEAHLSSSDRAIFVTVQV” stands “not soluble”.
Under “MKEYLKEVLDVSGEKFFILNPMIPNMDSNKPNFIIGKKSLIYTGKFAKDWNSDEILEAFAKIVRTNPDFRLIVAGDKFNLHPENPNFKEEVTQKLKTYKNVDWVGGVTREEVQKLIQQSDIGIGWRNNSLNDSLELSTKALEYGALGKPVILNRTPMHERLFGSEYPFYANSEEEFISCITQSLTNDDIYASAAETVYKVCTDFTFAKTYERISPFLWEAKDKRIRLVFAGHDLKFAKMFIDRFASRTRYEVEIDQWKGHSVNDESHSTNCLNWADVIFCEWGLGNAVWYSHRVRQGQTLIVRMHLQERETKHYLKFNYDAIDSIIAISPYIRDEFVNNCGIPSDNMVMIYNAVNCKKFDLEKYEDTQFNLGITGICPSRKRLDRAIDIFEKLKEKDSRYTLHIKGQLPTHYPWLWKKEEEKKYYEQVFKRINSSKWRDSIIFDGFGNDMDTWFQKIGYILSTSDFESFHLAPAEGMASGAFPIIIRWEGCHTIYDEDFIFENVDEAATFILKRNQVMGPNDIDVRTYVRNRFDIEKIFGDWEELIARLR” stands “not soluble”.
Consider “MNSEQIYHVDFKQSKRIKSFHYAGGLFQLTSDGVIFVGKDKDNNELPPRWICSSLSVVAKTRDANSGEWGRLLEWVDDDGIKHQWAMPLALLQGDSSDVRRELARLGLTISPSKTARDLLASYIQVFPVEERARCVDKLGWYKEVFVTANEAIGQSLSVAGSVEDWRNSISRLADGNSRLVFAISAAFAPSLANLVGEDSGGFHFRGASSSGKTTALKVAASVWGKPDSYIRLWRSTANGLEGLAALHNDGLLILNELSQMDPKEAGECAYLLANGQGKTRASRCGTARQSMRWSLLFLSAGEESLTSLMAKAGQRCNAGQEIRLADIEADAGAEMGLFEQLHDHINPAAMSLALKEAASQYHGAVGLAWLHKIVKHRAELIALLTNKIQHFVAKVTKPEHSGQIQRVARRFALVAMAGEIATHYELTGWTRGTACNPAEKCFNAWLKDFGEHGNREDRAILSQVRAFFEKEGASRFENENHPNSERLFNRAGFFHTDSEGFRVFMVLSEVYRKEICQGFEPKMVNKVLINAGWIVPGNDGKASQKRRIKGIGIPRCYIFTEKVWSDDYLEHHHHHH”, for which the “soluble on expression in E. coli” value was “soluble”.
Under “MIAIISLPGISMASSKSLQQAIANIKIWHKGEQRAPHKPLLLLYVLAGYLNGHPRLFDYGTEIYEPLHSLLERFGPQRSQYRPDMPFWRLQGDGIWQLHNAERCSTAGSSRQPPVKELNEYHVAGGFDEQHYALVTGNKKLINTLAQQILEAHFTESIQEEIADELGFDLQQTRKQRDPLFRKNVLRAYNYQCAICGFNMRHDDTTVALEAAHIKWKQHGGPCEIPNGLALCAIHHKAFDKGSIGLDENMRVLVSDAVNGGGIVERLFWDFDGKTIALPQVRKNYPYEGFVGER” stands “not soluble”.
Under “HGSYIDITIDLKHYNGSVFDLRLSDYHPVKKVIDIAWQAQSVSMPPREGHWIRVVNKDKVFSGECKLSDCGITNGDRLEIL” stands “soluble”; under “MAEIQFSKGVAETVVPEVRLSKSKNGQSGMAKFYFLEPTILAKESTDDITGMYLIDDEGEIITREVKGKFINGRPTAIEATVILNSQPEWDRFMRFMERYGAENGLGFSKSELEHHHHHH”, “soluble”; under “MAHHHHHHMMRCSRGCRRQLRPYYNLPSKSDHGRKMTGFLTPYRHWMWKQNELWRNVHEAQFEHLRKVYKRQWLESFRVNADEYIYKYNITKAAQLAQWEYEMQAQEKKRLEAKQMTEGRQALKKKHLDLLREFHERQFFFWYERASERLQSMNLIQYIPQSRVQEHIERELDKYVAGKSEAYPLNFVGQMPLVEDREGNIVEVPEGLLTNHVSEHPESTVKPHQPHESTSVSVEEQLLRTMASAREESLEEWIDDSRALSETIDDISREEEQRDEDTRVARSMEETDNEREISRRMYIDRGKTGSKAIFRRPTLSETDGGSASIPVGGVAASPADTSAPMRRRKKGKLDKAHALQEQQDAMIARMSAKSLKDGESSISIVKRGEIATSRGRIRDKAAIPTQEVLMQKPELAAGSVPNARISFKDKVDQLYHRGKYKQKKEDDNNPNEDL”, “not soluble”.
Under “PSETFYRAKIQEQRERHARYHDTTYNLEPDIKSTPGGLRDIHTLSWVARRHFGATSLLEMSRYGFLTDAEYRELVECQDFLWRVRFALHIELRRYDNRLTFAHQAQVAENLGYVGEGNRGVEMMMKEFYRTLRRVAELNKMLLKLFDQAIINGGATENAEILDADFQRRGSLIEARKPALFQARPETILDMFLHIANDSTIEGVSPPTLRQLRTARRRLN” stands “not soluble”; under “MGSDKIHHHHHHMRIEVWGGAGEYGRSCYFVKNKETKILFDCGINRSYEDSYPKIEREVVPFLDAVFLSHIHEDHTMGLPLLAKYGYKKKIWTTRYTKEQLPAYYEKWRNYNLAQGWHVPYTDQHVKDLNYVYIDEISNPNEWVQITPTLRFQWGYSGHVLGAVWFLLDMSHTYVFYSGDYSAESNILRANLPEKLHGDIKVAIVDAAYHTDDVSQHERINELCTEIERAAGNKGITLLPLPPLGRAQDIVLYLYKKYKELPIIVDQEILDGFQQMFAYKDWIKNNEELEELMESLKRNIIVMDDDSGTQHSYGIVVMSDANMQTKRAQLYYEQLRHDERNSIIFTGHIAKGSFAEKVLKERVGKECRVKRVPYKVHQSIRDVKEMLNTLSPEHTVLVHALKEDTDRLQKKLSTAGYENVYSLTMERIEVI”, “not soluble”; under “MAKVPDLFEDLKNCYSENEDYSSAIDHLSLNQKSFYDASYGSLHETCTDQFVSLRTSETSKMSNFTFKESRVTVSATSSNGKILKKRRLSFSETFTEDDLQSITHDLEETIQPRSAPYTYQSDLRYKLMKLVRQKFVMNDSLNQTIYQDVDKHYLSTTWLNDLQQEVKFDMYAYSSGGDDSKYPVTLKISDSQLFVSAQGEDQPVLLKELPETPKLITGSETDLIFFWKSINSKNYFTSAAYPELFIATKEQSRVHLARGLPSMTDFQIS”, “soluble”.
Take “SSGGKSAQGPEEGGVCITEALITKRNLTFPEDGELSEKMFHTLDELQTVRLDREGITTIRNLEGLQNLHSLYLQGNKIQQIENLACIPSLRFLSLAGNQIRQVENLLDLPCLQFLDLSENLIETLKLDEFPQSLLILNLSGNSCTNQDGYRELVTEALPLLLDLDGQPVVERWISDEEDEASSDEEFPELSGPFCSERGFLKELEQELSRHREHRQQTALTEHLLRMEMQPTLTDLPLLPGVPMAGDSSPSATPAQGEETVPEAVSSPQASSPTKKPCSLIPRGHQSSFWGRKGARAATAPKASVAEAPSTTKTTAKRSKK”: the “soluble on expression in E. coli” value is “soluble”.
Turning to “MLPFLFFSTLFSSIFTEAQKQYWVCNSSDASISYTYCDKMQYPISINVNPCIELKGSKGLLHIFYIPRRDLKQLYFNLYITVNTMNLPKRKEVICRGSDDDYSFCRALKGETVNTTISFSFKGIKFSKGKYKCVVEAISGSPEEMLFCLEFVILHQPNSNLEHHHHHH”, the “soluble on expression in E. coli” value was “not soluble”.
